Assays:
[1] = molecular target: 人OX40 (膜表面过表达人OX40的293T细胞系) (human) (UniProt P43489); assay: flow cytometry on 293T cells overexpressing human OX40
[2] = molecular target: OX40 (Kd检测ELISA法的抗原) (human) (UniProt P43489); assay: ELISA-based Kd method (ELASA法)
[3] = molecular target: 人OX40 (膜表面过表达人OX40的293T细胞系) (human) (UniProt P43489); assay: flow cytometry on 293T cells overexpressing human OX40, PE goat anti-mouse secondary

| EC50 [1] [nM] | Kd [2] [nM] | EC50 [3] [nM] | Molecule |
| --- | --- | --- | --- |
| 2.5 | 9.8 |  | CD40 Monoclonal Antibody (HB14), PE, Catalog#CD4004, Invitrogen |
|  | 0.0273 | 0.0125 | 抗人OX40单克隆抗体 (杂交瘤OX401M) (antibody, part only; not given: constant regions, V domains shown, part only) VH: QVQLAQPGAELVRPGASVKQYCKASGYSGSSYTIHWVKQTPSRGLEWIGAIYPGNGDTSWNQKFKGKATITADKSSSTAYMRLSSLTSEDSAISYCARSTYYYGAYYFDYWGQGSTL |

Source: patent CN110172090A
